Experimental data as given in US20230265151A1, “GIP/GLP1 CO-AGONIST COMPOUNDS” (priority 2020, published 2023).
Numbering of substitutions follows the chain as printed.

T1: human GIP receptor (human, UniProt P48546 22-466)
T1 sequence (looked up): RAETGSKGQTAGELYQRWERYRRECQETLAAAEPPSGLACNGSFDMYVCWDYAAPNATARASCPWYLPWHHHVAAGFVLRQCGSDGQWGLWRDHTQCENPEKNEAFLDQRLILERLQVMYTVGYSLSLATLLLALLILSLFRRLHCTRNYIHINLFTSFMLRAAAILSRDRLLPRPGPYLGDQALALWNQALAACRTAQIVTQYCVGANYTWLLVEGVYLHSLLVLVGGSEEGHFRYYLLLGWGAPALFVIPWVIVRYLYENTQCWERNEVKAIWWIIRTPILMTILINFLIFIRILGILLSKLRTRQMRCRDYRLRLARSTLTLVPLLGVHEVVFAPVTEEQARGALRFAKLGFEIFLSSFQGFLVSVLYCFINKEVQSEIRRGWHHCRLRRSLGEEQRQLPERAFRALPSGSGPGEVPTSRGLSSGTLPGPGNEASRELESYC

B1: Example 455 (peptide)
peptide: YXEGTXTSDXXIXLDXQAQXXFIKXLIKGGPSSGAPPPS
modifications: Y-Aib-EGT-αMeF(2F)-TSD-4Pal-Aib-I-αMeL-LD-Orn-QAQ-Aib-Orn-FIK(Ahx-(2-[2-(2-Amino-ethoxy)-ethoxy]-acetyl)-(γ-Glu)-(10-(4-carboxyphenoxy)decanoyl))-αMeY-LIK(Ahx-(2-[2-(2-Amino-ethoxy)-ethoxy]-acetyl)-(γ-Glu)-(10-(4-carboxyphenoxy)decanoyl))GGPSSGAPPPS-NH2
B2: Example 468 (peptide)
peptide: B1 peptide
modifications: Y-Aib-EGT-αMeF(2F)-TSD-4Pal-Aib-I-αMeL-LD-Orn-QAQ-Aib-Orn-FIK(PEG6-(γ-Glu)-(10-(4-carboxyphenoxy)decanoyl))-αMeY-LIK(PEG6-(γ-Glu)-(10-(4-carboxyphenoxy)decanoyl))GGPSSGAPPPS-NH2
B3: Example 477 (peptide)
peptide: B1 peptide
modifications: Y-Aib-EGT-αMeF(2F)-TSD-4Pal-Aib-I-αMeL-LD-Orn-QAQ-Aib-Orn-FIK((2-[2-(2-Amino-ethoxy)-ethoxy]-acetyl)3-(γ-Glu)--(10-(4-carboxyphenoxy)decanoyl))-αMeY-LIK((2-[2-(2-Amino-ethoxy)-ethoxy]-acetyl)3-(γ-Glu)--(10-(4-carboxyphenoxy)decanoyl))GGPSSGAPPPS-NH2
B4: Example 466 (peptide)
peptide: B1 peptide
modifications: Y-Aib-EGT-αMeF(2F)-TSD-4Pal-Aib-I-αMeL-LD-Orn-QAQ-Aib-Orn-FIK(PEG6-(γ-Glu)-CO-(CH2)12-CO2H)-αMeY-LIK(PEG6-(γ-Glu)-CO-(CH2)12-CO2H)GGPSSGAPPPS-NH2
B5: Example 456 (peptide)
peptide: B1 peptide
modifications: Y-Aib-EGT-αMeF(2F)-TSD-4Pal-Aib-I-αMeL-LD-Orn-QAQ-Aib-Orn-FIK(Aoc-(2-[2-(2-Amino-ethoxy)-ethoxy]-acetyl)-(γ-Glu)-(10-(4-carboxyphenoxy)decanoyl))-αMeY-LIK(Aoc-(2-[2-(2-Amino-ethoxy)-ethoxy]-acetyl)-(γ-Glu)-(10-(4-carboxyphenoxy)decanoyl))GGPSSGAPPPS-NH2
B6: Example 462 (peptide)
peptide: B1 peptide
modifications: Y-Aib-EGT-αMeF(2F)-TSD-4Pal-Aib-I-αMeL-LD-Orn-QAQ-Aib-Orn-FIK(PEG3-(γ-Glu)-(10-(4-carboxyphenoxy)decanoyl))-αMeY-LIK(PEG3-(γ-Glu)-(10-(4-carboxyphenoxy)decanoyl))GGPSSGAPPPS-NH2
B7: Example 491 (peptide)
peptide: B1 peptide with X11S
modifications: Y-Aib-EGT-αMeF(2F)-TSD-hY-SI-αMeL-LD-Orn-QAQ-Aib-Orn-FIK((2-[2-(2-Amino-ethoxy)-ethoxy]-acetyl)2-(γ-Glu)-CO-(CH2)12-CO2H)-αMeY-LIK((2-[2-(2-Amino-ethoxy)-ethoxy]-acetyl)2-(γ-Glu)-CO-(CH2)12-CO2H)GGPSSGAPPPS-NH2
B8: Example 486 (peptide)
peptide: B1 peptide
modifications: Y-Aib-EGT-αMeF(2F)-TSD-4Pal-Aib-I-αMeL-LD-Orn-QAQ-Aib-Orn-FIK((2-[2-(2-Amino-ethoxy)-ethoxy]-acetyl)-(γ-Glu)3-CO-(CH2)12-CO2H)-αMeY-LIK((2-[2-(2-Amino-ethoxy)-ethoxy]-acetyl)-(γ-Glu)3-CO-(CH2)12-CO2H)GGPSSGAPPPS-NH2
B9: Example 471 (peptide)
peptide: B1 peptide
modifications: Y-Aib-EGT-αMeF(2F)-TSD-4Pal-Aib-I-αMeL-LD-Orn-QAQ-Aib-Orn-FIK((2-[2-(2-Amino-ethoxy)-ethoxy]-acetyl)2--Trx-(γ-Glu)-(10-(4-carboxyphenoxy)decanoyl))-αMeY-LIK(((2-[2-(2-Amino-ethoxy)-ethoxy]-acetyl)2--Trx-(γ-Glu)-(10-(4-carboxyphenoxy)decanoyl))GGPSSGAPPPS-NH2)
B10: Example 473 (peptide)
peptide: B1 peptide
modifications: Y-Aib-EGT-αMeF(2F)-TSD-4Pal-Aib-I-αMeL-LD-Orn-QAQ-Aib-Orn-FIK((2-[2-(2-Amino-ethoxy)-ethoxy]-acetyl)-Trx-(γ-Glu)-(10-(4-carboxyphenoxy)decanoyl))-αMeY-LIK(((2-[2-(2-Amino-ethoxy)-ethoxy]-acetyl)-Trx-(γ-Glu)-(10-(4-carboxyphenoxy)decanoyl))GGPSSGAPPPS-NH2)
B11: Example 483 (peptide)
peptide: B1 peptide
modifications: Y-Aib-EGT-αMeF(2F)-TSD-4Pal-Aib-I-αMeL-LD-Orn-QAQ-Aib-Orn-FIK((γ-Glu)-(2-[2-(2-Amino-ethoxy)-ethoxy]-acetyl)2-(γ-Glu)-(10-(4-carboxyphenoxy)decanoyl))-αMeY-LIK((γ-Glu)-(2-[2-(2-Amino-ethoxy)-ethoxy]-acetyl)2-(γ-Glu)-(10-(4-carboxyphenoxy)decanoyl))GGPSSGAPPPS-NH2
B12: Example 470 (peptide)
peptide: B1 peptide
modifications: Y-Aib-EGT-αMeF(2F)-TSD-4Pal-Aib-I-αMeL-LD-Orn-QAQ-Aib-Orn-FIK((2-[2-(2-Amino-ethoxy)-ethoxy]-acetyl)2--Trx-(γ-Glu)-CO-(CH2)12-CO2H)-αMeY-LIK(((2-[2-(2-Amino-ethoxy)-ethoxy]-acetyl)2--Trx(γ-Glu)-CO-(CH2)12-CO2H)GGPSSGAPPPS-NH2)
B13: Example 487 (peptide)
peptide: B1 peptide
modifications: Y-Aib-EGT-αMeF(2F)-TSD-4Pal-Aib-I-αMeL-LD-Orn-QAQ-Aib-Orn-FIK((2-[2-(2-Amino-ethoxy)-ethoxy]-acetyl)-(γ-Glu)3-(10-(4-carboxyphenoxy)decanoyl))-αMeY-LIK((2-[2-(2-Amino-ethoxy)-ethoxy]-acetyl)-(γ-Glu)3--(10-(4-carboxyphenoxy)decanoyl))GGPSSGAPPPS-NH2
B14: Example 492 (peptide)
peptide: B1 peptide with X10Y
modifications: Y-Aib-EGT-αMeF(2F)-TSDY-Aib-I-αMeL-LD-Orn-QAQ-Aib-Orn-FIK((2-[2-(2-Amino-ethoxy)-ethoxy]-acetyl)2-(γ-Glu)--C10_4CP)-αMeY-LIK((2-[2-(2-Amino-ethoxy)-ethoxy]-acetyl)2-(γ-Glu)--C10_4CP)GGPSSGAPPPS-NH2
B15: Example 463 (peptide)
peptide: B1 peptide
modifications: Y-Aib-EGT-αMeF(2F)-TSD-4Pal-Aib-I-αMeL-LD-Orn-QAQ-Aib-Orn-FIK((2-[2-(2-Amino-ethoxy)-ethoxy]-acetyl)-(γ-Glu)-(10-(4-carboxyphenoxy)decanoyl))-αMeY-LIK((2-[2-(2-Amino-ethoxy)-ethoxy]-acetyl)-(γ-Glu)-(10-(4-carboxyphenoxy)decanoyl))GGPSSGAPPPS-NH2
B16: Example 484 (peptide)
peptide: B1 peptide
modifications: Y-Aib-EGT-αMeF(2F)-TSD-4Pal-Aib-I-αMeL-LD-Orn-QAQ-Aib-Orn-FIK((2-[2-(2-Amino-ethoxy)-ethoxy]-acetyl)-(γ-Glu)-(2-[2-(2-Amino-ethoxy)-ethoxy]-acetyl)-(γ-Glu)-CO-(CH2)12-CO2H)-αMeY-LIK((2-[2-(2-Amino-ethoxy)-ethoxy]-acetyl)-(γ-Glu)-(2-[2-(2-Amino-ethoxy)-ethoxy]-acetyl)-(γ-Glu)-CO-(CH2)12-CO2H)GGPSSGAPPPS-NH2

Legend:
Test in all cases: cell-based or functional assay
[1] = target: T1, human GIP receptor
[2] = target: human GLP-1 receptor (human, UniProt P43220 24-463)
[3] = target: human glucagon receptor (human, UniProt P47871 26-477)
Chain of human glucagon receptor (P47871 26-477): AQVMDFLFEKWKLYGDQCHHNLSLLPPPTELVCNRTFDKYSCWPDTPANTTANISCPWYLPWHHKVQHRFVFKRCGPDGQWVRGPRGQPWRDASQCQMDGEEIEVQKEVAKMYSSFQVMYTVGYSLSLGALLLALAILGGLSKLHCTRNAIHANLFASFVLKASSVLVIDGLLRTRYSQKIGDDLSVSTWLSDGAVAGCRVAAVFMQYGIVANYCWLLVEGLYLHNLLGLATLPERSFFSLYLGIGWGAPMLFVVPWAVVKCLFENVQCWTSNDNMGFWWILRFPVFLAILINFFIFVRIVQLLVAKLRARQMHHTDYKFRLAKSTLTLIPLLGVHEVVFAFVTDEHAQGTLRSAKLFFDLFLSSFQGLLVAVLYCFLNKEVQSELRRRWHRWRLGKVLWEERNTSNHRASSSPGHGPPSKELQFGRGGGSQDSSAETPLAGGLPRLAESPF

Binder	cAMP EC50 (1.0% HSA) [1]	cAMP EC50 (1.0% HSA) [2]	cAMP EC50 (1.0% HSA) [3]	cAMP Emax (1.0% HSA) [1]	cAMP Emax (1.0% HSA) [2]
B1	0.362 nM	5.24 nM	> 9950 nM		
B2	0.222 nM	1.84 nM	> 10100 nM		
B3	0.163 nM	1.56 nM	> 9950 nM		
B4	0.314 nM	3.32 nM	> 10100 nM		
B5	0.878 nM	14.7 nM	> 9950 nM		
B6	0.317 nM	3.34 nM	> 9950 nM		
B7	1.08 nM	5.51 nM	> 9950 nM	87.5%	
B8	0.239 nM	2 nM	> 9950 nM		
B9	0.568 nM	4.36 nM	> 9950 nM		
B10	0.979 nM	7.07 nM	> 9950 nM		
B11	0.297 nM	3.33 nM	> 9950 nM		
B12	0.719 nM	4.54 nM	> 9950 nM		
B13	0.429 nM	3.16 nM	> 9950 nM		
B14	0.371 nM	4.31 nM	> 9950 nM	88.7%	104%
B15	0.35 nM	4.09 nM	> 9950 nM		
B16	0.453 nM	3.66 nM	> 9950 nM		
